Measured values as given in US20090220535A1 (REGENTS OF THE UNIVERSITY OF COLORADO, published 2009).
Positions count from the first letter of the chain named. In names and notes the source's numbering stands.

B1: BPV1 GST-L2 fusion protein, L2 amino acids 316-469 (other)
chain: GPQLHVRYSLSTIHEDVEAIPYTVDENTQGLAFVPLHEEQAGFEEIELDDFSETHRLLPQNTSSTPVGSGVRRSLIPTQEFSATRPTGVVTYGSPDTYSASPVTDPDSTSPSLVIDDTTTTPIIIIDGHTVDLYSSNYTLHPSLLRKRKKRKHA
notes: range 316-469; Cloned as a BamHI/XhoI fragment; also called BPV1 L2; not shown: glutathione-S-transferase (GST) fusion partner from vector pXA/BN (multiple cloning site of pGEX-4T-2); thrombin-cleavab
B2: HPV1a GST-L2 fusion protein, L2 amino acids 347-507 (other)
chain: GARTHFFYDLSSIAPEDSIELLPLGEHSQTTVISSNLGDTAFIQGETAEDDLEVISLETPQLYSEEELLDTNESVGENLQLTITNSEGEVSILDLTQSRVRPPFGTEDTSLHVYYPNSSKGTPIINPEESFTPLVIIALNNSTGDFELHPSLRKRRKRAYV
notes: range 347-507; also called HPV1a L2; not shown: glutathione-S-transferase (GST) fusion partner from vector pXA/BN (multiple cloning site of pGEX-4T-2); thrombin-cleavab
B3: HPV11 GST-L2 (313-455) (other)
chain: GARIHYFQDISPVTQAAEEIELHPLVAAENDTFDIYAEPFDPIPDPVQHSVTQSYLTSTPNTLSQSWGNTTVPLSIPSDWFVQSGPDITFPTASMGTPFSPVTPALPTGPVFITGSDFYLHPTWYFARRRRKRIPLFFTDVAA
notes: Carboxy-terminal third of HPV11 L2; also called pXA/BN-HPV11L2/313-455; HPV GST=L2(313455); not shown: glutathione-S-transferase (GST) fusion partner from vector pXA/BN (multiple cloning site of pGEX-4T-2); thrombin-cleavab
B4: HPV11 GST-L2 fusion protein, L2 amino acids 346-439 (other)
chain: DIYAEPFDPIPDPVQHSVTQSYLTSTPNTLSQSWGNTTVPLSIPSDWFVQSGPDITFPTASMGTPFSPVTPALPTGPVFITGSDFYLHPTWYFA
notes: also called pXA/BN-HPV11L2/346-439; not shown: glutathione-S-transferase (GST) fusion partner from vector pXA/BN (multiple cloning site of pGEX-4T-2); thrombin-cleavab
B5: HPV11 GST-L2 fusion protein, L2 amino acids 1-309 (other)
chain: MKPRARRRKRASATQLYQTCKATGTCPPDVIPKVEHTTIADQILKWGSLGVFFGGLGIGTGAGSGGRAGYIPLGSSPKPAITGGPAARPPVLVEPVAPSDPSIVSLIEESAIINAGAPEVVPPTQGGFTITSSESTTPAILDVSVTNHTTTSVFQNPLFTEPSVIQPQPPVEASGHILISAPTITSQHVEDIPLDTFVVSSSDSGPTSSTPLPRAFPRPRVGLYSRALQQVQVTDPAFLSTPQRLVTYDNPVYEGEDVSLQFTHESIHNAPDEAFMDIIRLHRPAITSRRGLVRFSRIGQRGSMYTRSG
notes: also called pXA/BN-HPV11L2/1-309; not shown: glutathione-S-transferase (GST) fusion partner from vector pXA/BN (multiple cloning site of pGEX-4T-2); thrombin-cleavab
B6: HPV11 GST-L2 fusion protein, L2 amino acids 346-455 (other)
chain: DIYAEPFDPIPDPVQHSVTQSYLTSTPNTLSQSWGNTTVPLSIPSDWFVQSGPDITFPTASMGTPFSPVTPALPTGPVFITGSDFYLHPTWYFARRRRKRIPLFFTDVAA
notes: also called pXA/BN-HPV11L2/346-455; not shown: glutathione-S-transferase (GST) fusion partner from vector pXA/BN (multiple cloning site of pGEX-4T-2); thrombin-cleavab
B7: HPV11 GST-L2 fusion protein, L2 amino acids 157-309 (other)
chain: PLFTEPSVIQPQPPVEASGHILISAPTITSQHVEDIPLDTFVVSSSDSGPTSSTPLPRAFPRPRVGLYSRALQQVQVTDPAFLSTPQRLVTYDNPVYEGEDVSLQFTHESIHNAPDEAFMDIIRLHRPAITSRRGLVRFSRIGQRGSMYTRSG
notes: also called pXA/BN-HPV11L2/157-309; not shown: glutathione-S-transferase (GST) fusion partner from vector pXA/BN (multiple cloning site of pGEX-4T-2); thrombin-cleavab
B8: HPV11 GST-L2 fusion protein, L2 amino acids 396-439 (other)
chain: SGPDITFPTASMGTPFSPVTPALPTGPVFITGSDFYLHPTWYFA
notes: also called pXA/BN-HPV11L2/396-439; not shown: glutathione-S-transferase (GST) fusion partner from vector pXA/BN (multiple cloning site of pGEX-4T-2); thrombin-cleavab
B9: HPV11 GST-L2 fusion protein, L2 amino acids 1-455 (full length) (other)
chain: MKPRARRRKRASATQLYQTCKATGTCPPDVIPKVEHTTIADQILKWGSLGVFFGGLGIGTGAGSGGRAGYIPLGSSPKPAITGGPAARPPVLVEPVAPSDPSIVSLIEESAIINAGAPEVVPPTQGGFTITSSESTTPAILDVSVTNHTTTSVFQNPLFTEPSVIQPQPPVEASGHILISAPTITSQHVEDIPLDTFVVSSSDSGPTSSTPLPRAFPRPRVGLYSRALQQVQVTDPAFLSTPQRLVTYDNPVYEGEDVSLQFTHESIHNAPDEAFMDIIRLHRPAITSRRGLVRFSRIGQRGSMYTRSGQHIGARIHYFQDISPVTQAAEEIELHPLVAAENDTFDIYAEPFDPIPDPVQHSVTQSYLTSTPNTLSQSWGNTTVPLSIPSDWFVQSGPDITFPTASMGTPFSPVTPALPTGPVFITGSDFYLHPTWYFARRRRKRIPLFFTDVAA
notes: also called pXA/BN-HPV11 L2; not shown: glutathione-S-transferase (GST) fusion partner from vector pXA/BN (multiple cloning site of pGEX-4T-2); thrombin-cleavab
B10: HPV11 GST-L2 fusion protein, L2 amino acids 396-455 (other)
chain: SGPDITFPTASMGTPFSPVTPALPTGPVFITGSDFYLHPTWYFARRRRKRIPLFFTDVAA
notes: also called pXA/BN-HPV11L2/396-455; not shown: glutathione-S-transferase (GST) fusion partner from vector pXA/BN (multiple cloning site of pGEX-4T-2); thrombin-cleavab
B11: HPV11 GST-L2 fusion protein, L2 amino acids 313-400 (other)
chain: GARIHYFQDISPVTQAAEEIELHPLVAAENDTFDIYAEPFDPIPDPVQHSVTQSYLTSTPNTLSQSWGNTTVPLSIPSDWFVQSGPDI
notes: also called pXA/BN-HPV11L2/313-400; not shown: glutathione-S-transferase (GST) fusion partner from vector pXA/BN (multiple cloning site of pGEX-4T-2); thrombin-cleavab
B12: HPV11 GST-L2 fusion protein, L2 amino acids 1-156 (other)
chain: MKPRARRRKRASATQLYQTCKATGTCPPDVIPKVEHTTIADQILKWGSLGVFFGGLGIGTGAGSGGRAGYIPLGSSPKPAITGGPAARPPVLVEPVAPSDPSIVSLIEESAIINAGAPEVVPPTQGGFTITSSESTTPAILDVSVTNHTTTSVFQN
notes: also called pXA/BN-HPV11L2/1-156; not shown: glutathione-S-transferase (GST) fusion partner from vector pXA/BN (multiple cloning site of pGEX-4T-2); thrombin-cleavab
B13: HPV11 GST-L2 fusion protein, L2 amino acids 157-455 (other)
chain: PLFTEPSVIQPQPPVEASGHILISAPTITSQHVEDIPLDTFVVSSSDSGPTSSTPLPRAFPRPRVGLYSRALQQVQVTDPAFLSTPQRLVTYDNPVYEGEDVSLQFTHESIHNAPDEAFMDIIRLHRPAITSRRGLVRFSRIGQRGSMYTRSGQHIGARIHYFQDISPVTQAAEEIELHPLVAAENDTFDIYAEPFDPIPDPVQHSVTQSYLTSTPNTLSQSWGNTTVPLSIPSDWFVQSGPDITFPTASMGTPFSPVTPALPTGPVFITGSDFYLHPTWYFARRRRKRIPLFFTDVAA
notes: also called pXA/BN-HPV11L2/157-455; not shown: glutathione-S-transferase (GST) fusion partner from vector pXA/BN (multiple cloning site of pGEX-4T-2); thrombin-cleavab
B14: HPV16 GST-L2 fusion protein, L2 amino acids 321-473 (other)
chain: GAKVHYYYDLSTIDPAEEIELQTITPSTYTTTSHAASPTSINNGLYDIYADDFITDTSTTPVPSVPSTSLSGYIPANTTIPFGGAYNIPLVSGPDIPINITDQAPSLIPIVPGSPQYTIIADAGDFYLHPSYYMLRKRRKRLPYFFSDVSLAA
notes: also called HPV16 L2; not shown: glutathione-S-transferase (GST) fusion partner from vector pXA/BN (multiple cloning site of pGEX-4T-2); thrombin-cleavab
B15: HPV6b GST-L2 fusion protein, L2 amino acids 316-459 (other)
chain: RIHYFYDISPIAQAAEEIEMHPLVAAQDDTFDIYAESFEPGINPTQHPVTNISDTYLTSTPNTVTQPWGNTTVPLSLPNDPFLQSGPDITFPTAPMGTPFSPVTPALPTGPVFITGSGFYLHPAWYFARKRRKRIPLFFSDVAA
notes: also called HPV6b L2; not shown: glutathione-S-transferase (GST) fusion partner from vector pXA/BN (multiple cloning site of pGEX-4T-2); thrombin-cleavab
B16: HPV33 GST-L2 fusion protein, L2 amino acids 319-467 (other)
chain: GARIHYYQDLSPIVPLDHTVPNEQYELQPLHDTSTSSYSINDGLYDVYADDVDNVHTPMQHSYSTFATTRTSNVSIPLNTGFDTPVMSGPDIPSPLFPTSSPFVPISPFFPFDTIVVDGADFVLHPSYFILRRRRKRFPYFFTDVRVAA
notes: also called HPV33 L2; not shown: glutathione-S-transferase (GST) fusion partner from vector pXA/BN (multiple cloning site of pGEX-4T-2); thrombin-cleavab
B17: HPV11 GST-L2 (313-455) mutant P419A (other)
chain: B3 chain with P107A
notes: also called pXA/BN-HPV11L2/313-455/P419A; not shown: N-terminal GST fusion partner and its thrombin linker (vector pXA/BN with the pGEX-4T-2 cloning site)
B18: HPV11 GST-L2 (313-455) mutant L418E (other)
chain: B3 chain with L106E
notes: not shown: N-terminal GST fusion partner and its thrombin linker (vector pXA/BN with the pGEX-4T-2 cloning site)
B19: HPV11 GST-L2 (313-455) mutant P416A (other)
chain: B3 chain with P104A
notes: also called pXA/BN-HPV11L2/313-455/P416A; not shown: N-terminal GST fusion partner and its thrombin linker (vector pXA/BN with the pGEX-4T-2 cloning site)
B20: HPV11 GST-L2 (313-455) double mutant AL417-418EE (other)
chain: B3 chain with A105E, L106E
notes: The text says 'changed to glutamines' but prints EE and speaks of negatively charged residues; also called pXA/BN-HPV11L2/313-455/AL417418EE; not shown: N-terminal GST fusion partner and its thrombin linker (vector pXA/BN with the pGEX-4T-2 cloning site)
B21: HPV11 GST-L2 (313-455) mutant A417E (other)
chain: B3 chain with A105E
notes: also called pXA/BN-HPV11L2/313-455/A417E; not shown: N-terminal GST fusion partner and its thrombin linker (vector pXA/BN with the pGEX-4T-2 cloning site)
B22: HPV11 GST-L2 (313-455) mutant P413A (other)
chain: B3 chain with P101A
notes: also called pXA/BN-HPV11L2/313-455/P413A; not shown: N-terminal GST fusion partner and its thrombin linker (vector pXA/BN with the pGEX-4T-2 cloning site)

molecular target: T1, HPV11 L1 protein (human papillomavirus type 11, UniProt P04012 1-501); assay: co-expression in E. coli, glutathione sepharose eluate, immunoblot and Coomassie densitometry
T1 construct: Full-length HPV11 L1 DNA amplified from pVL11L1
T1 sequence: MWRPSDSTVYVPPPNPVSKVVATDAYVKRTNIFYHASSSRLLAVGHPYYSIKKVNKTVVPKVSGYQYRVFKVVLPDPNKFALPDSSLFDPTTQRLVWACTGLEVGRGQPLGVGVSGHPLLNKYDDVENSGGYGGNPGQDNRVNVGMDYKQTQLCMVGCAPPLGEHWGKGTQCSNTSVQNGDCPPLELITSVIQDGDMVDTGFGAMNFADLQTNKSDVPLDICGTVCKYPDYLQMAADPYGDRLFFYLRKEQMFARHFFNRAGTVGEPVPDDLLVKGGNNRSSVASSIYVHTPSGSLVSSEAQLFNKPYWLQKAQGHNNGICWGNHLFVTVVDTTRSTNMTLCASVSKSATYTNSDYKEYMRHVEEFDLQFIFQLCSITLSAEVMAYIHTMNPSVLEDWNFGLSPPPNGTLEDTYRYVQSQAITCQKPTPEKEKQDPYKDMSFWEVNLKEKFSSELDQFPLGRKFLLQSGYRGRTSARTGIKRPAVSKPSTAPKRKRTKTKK

| Molecule | binding result |
| --- | --- |
| B1 | no binding |
| B2 | no binding |

molecular target: T1, HPV11 L1 protein; assay: densitometry of partially purified glutathione sepharose eluates

| Molecule | L1:L2 |
| --- | --- |
| B3 | ~2 L1:L2 ratio |

molecular target: T1, HPV11 L1 protein; assay: co-expression in E. coli, glutathione sepharose eluate, SDS-PAGE
Protocol: The lysates were then treated with 10 units/ml DNAse I in the presence of 5 mM MgCl2 for 30 minutes. […] Lysates were briefly sonicated, then centrifuged at 17,000 G for one hour and the supernatant was passed over a 10 mL bed volume glutathione sepharose column. […] The columns were washed with buffer L (40 mM Tris-Cl, pH 8.0, 0.2 M NaCl, 1 mM EDTA, 2 mM DTT) until no protein was detectable in the wash (approximately 20 bed volumes). To purify L1+GST-L2 complexes, bound proteins were eluted with 10 mM reduced glutathione in buffer L. The eluates were concentrated using Centriplus concentrators (Amicon). To further purify L1+L2 complexes from contaminating bacterial proteins, free L2 and L2 degradation products, eluted proteins were subjected to size exclusion fast pressure chromatography (FPLC) using a HiLoad Superdex 200 gel filtration column (Pharmacia). FPLC fractions containing complexes were pooled and further concentrated as outlined above. Protein complexes were analyzed by SDS-PAGE followed by Coomassie blue staining or immunoblotting. For densitometric analysis on Coomassie-stained gels, images were captured using a fluor-S MultiImager (Bio-Rad) with Quantity One software (BioRad) and quantitated using ImageQuant software (Molecular Dynamics). Using this strategy, L1 will be present upon elution from glutathione-sepharose only if it is bound to GST-L2.
The ability of each L2 protein to bind HPV11 L1 was determined by the presence or absence of L1 in the eluate from the glutathione sepharose column as measured by SDS-PAGE.

| Molecule | binding result |
| --- | --- |
| B4 | binds |
| B5 | no binding |
| B6 | binds |
| B7 | no binding |
| B8 | binds |
| B9 | binds |
| B10 | binds |
| B11 | no binding |
| B12 | no binding |
| B13 | binds |

molecular target: HPV11 L1 protein (human papillomavirus type 11) (UniProt P04012); assay: co-expression, glutathione sepharose eluate, densitometry of Coomassie-stained SDS-PAGE

| Molecule | L1:L2 |
| --- | --- |
| HPV5 GST-L2 fusion protein, L2 amino acids 376-518 (from UniProt P06918 376-518) | < 1 L1:L2 ratio |
| HPV12 GST-L2 fusion protein, L2 amino acids 360-518 (from UniProt P08515 1-218) | < 1 L1:L2 ratio |
| COPV1 GST-L2 fusion protein, L2 amino acids 360-513 (from UniProt P08515 1-218) | < 1 L1:L2 ratio |

molecular target: T1, HPV11 L1 protein; assay: as above

| Molecule | L1:L2 |
| --- | --- |
| B3 | > 1 L1:L2 ratio |
| B14 | > 1 L1:L2 ratio |
| B15 | > 1 L1:L2 ratio |
| B16 | > 1 L1:L2 ratio |

molecular target: T1, HPV11 L1 protein; assay: densitometry after size exclusion chromatography of the complex

| Molecule | L1:L2 |
| --- | --- |
| B3 | ~5 L1:L2 ratio |

molecular target: T1, HPV11 L1 protein; assay: co-expression, glutathione sepharose eluate, densitometry

| Molecule | L1:L2 | binding result |
| --- | --- | --- |
| B3 | 2 L1:L2 ratio | – |
| B17 | – | binds |
| B18 | – | binds |
| B19 | – | binds |
| B20 | 0.33 L1:L2 ratio | – |
| B21 | 1 L1:L2 ratio | – |
| B22 | – | binds |
